Where a chain is given by its changes, count along the chain named. In names and notes the source's numbering stands.

To fix the notation:
B1: CE115HA000 K52I one-arm antibody (antibody, human IgG1, kappa, L234A L235A, N297A, name in Kabat numbering)
heavy: QVQLVESGGGVVQPGRSLRLSCAASGFTFSNAWMHWVRQAPGKGLEWVAQIIAKSNNYATYYAESVKGRFTISRDDSKNSLYLQMNSLKTEDTAVYYCRYVHYGAYYGVDAWGQGTTVTVSSASTKGPSVFPLAPSSKSTSGGTAALGCLVKDYFPEPVTVSWNSGALTSGVHTFPAVLQSSGLYSLSSVVTVPSSSLGTQTYICNVNHKPSNTKVDKKVEPKSCDKTHTCPPCPAPEAAGGPSVFLFPPKPKDTLMISRTPEVTCVVVDVSHEDPEVKFNWYVDGVEVHNAKTKPREEQYASTYRVVSVLTVLHQDWLNGKEYKCKVSNKALPAPIEKTISKAKGQPREPQVYTLPPSRCELTKNQVSLSCAVKGFYPSDIAVEWESNGQPENNYKTTPPVLDSDGSFFLVSKLTVDKSRWQQGNVFSCSVMHEALHNHYTQKSLSLSPDYKDDDDK
chain: EPKSSDKTHTCPPCPAPELLGGPSVFLFPPKPKDTLMISRTPEVTCVVVDVSHEDPEVKFNWYVDGVEVHNAKTKPREEQYNSTYRVVSVLTVLHQDWLNGKEYKCKVSNKALPAPIEKTISKAKGQPREPQVCTLPPSRDELTKNQVSLWCLVKGFYPSDIAVEWESNGQPENNYKTTPPVLDSDGSFFLYSKLTVDKSRWQQGNVFSCSVMHEALHNRYTQKSLSLSP
light: DIVMTQSPLSLPVTPGEPASISCRSSQSLVHSNRNTYLHWYQQKPGQAPRLLIYKVSNRFSGVPDRFSGSGSGTDFTLKISRVEAEDVGVYYCGQGTQVPYTFGQGTKLEIKRTVAAPSVFIFPPSDEQLKSGTASVVCLLNNFYPREAKVQWKVDNALQSGNSQESVTEQDSKDSTYSLSSTLTLSKADYEKHKVYACEVTHQGLSSPVTKSFNRGEC
B2: CE115HA000 K52bL one-arm antibody (antibody, human IgG1, kappa, L234A L235A, N297A, name in Kabat numbering)
heavy: B1 heavy with I52K, K54L
chain: B1 chain
light: B1 light
B3: CE115HA000 N31Q one-arm antibody (antibody, human IgG1, kappa, L234A L235A, N297A, name in Kabat numbering)
heavy: B1 heavy with N31Q, I52K
chain: B1 chain
light: B1 light
B4: CE115HA000 K75T one-arm antibody (antibody, human IgG1, kappa, L234A L235A, N297A, name in Kabat numbering)
heavy: B1 heavy with I52K, K78T
chain: B1 chain
light: B1 light
B5: CE115HA000 K64S one-arm antibody (antibody, human IgG1, kappa, L234A L235A, N297A, name in Kabat numbering)
heavy: B1 heavy with I52K, K67S
chain: B1 chain
light: B1 light
B6: CE115HA000 N31F one-arm antibody (antibody, human IgG1, kappa, L234A L235A, N297A, name in Kabat numbering)
heavy: B1 heavy with N31F, I52K
chain: B1 chain
light: B1 light
B7: CE115HA000 K52bQ one-arm antibody (antibody, human IgG1, kappa, L234A L235A, N297A, name in Kabat numbering)
heavy: B1 heavy with I52K, K54Q
chain: B1 chain
light: B1 light
B8: CE115HA000 K52bD one-arm antibody (antibody, human IgG1, kappa, L234A L235A, N297A, name in Kabat numbering)
heavy: B1 heavy with I52K, K54D
chain: B1 chain
light: B1 light
B9: CE115HA000 N31K one-arm antibody (antibody, human IgG1, kappa, L234A L235A, N297A, name in Kabat numbering)
heavy: B1 heavy with N31K, I52K
chain: B1 chain
light: B1 light
B10: CE115HA000 K52bA one-arm antibody (antibody, human IgG1, kappa, L234A L235A, N297A, name in Kabat numbering)
heavy: B1 heavy with I52K, K54A
chain: B1 chain
light: B1 light
B11: CE115HA000 K52bS one-arm antibody (antibody, human IgG1, kappa, L234A L235A, N297A, name in Kabat numbering)
heavy: B1 heavy with I52K, K54S
chain: B1 chain
light: B1 light
B12: CE115HA000 K64E one-arm antibody (antibody, human IgG1, kappa, L234A L235A, N297A, name in Kabat numbering)
heavy: B1 heavy with I52K, K67E
chain: B1 chain
light: B1 light
B13: CE115HA000 K52Y one-arm antibody (antibody, human IgG1, kappa, L234A L235A, N297A, name in Kabat numbering)
heavy: B1 heavy with I52Y
chain: B1 chain
light: B1 light
B14: CE115HA000 K52S one-arm antibody (antibody, human IgG1, kappa, L234A L235A, N297A, name in Kabat numbering)
heavy: B1 heavy with I52S
chain: B1 chain
light: B1 light
B15: CE115HA000 K52bR one-arm antibody (antibody, human IgG1, kappa, L234A L235A, N297A, name in Kabat numbering)
heavy: B1 heavy with I52K, K54R
chain: B1 chain
light: B1 light
B16: CE115HA000 K52bN one-arm antibody (antibody, human IgG1, kappa, L234A L235A, N297A, name in Kabat numbering)
heavy: B1 heavy with I52K, K54N
chain: B1 chain
light: B1 light
B17: CE115HA000 L78I one-arm antibody (antibody, human IgG1, kappa, L234A L235A, N297A, name in Kabat numbering)
heavy: B1 heavy with I52K, L81I
chain: B1 chain
light: B1 light
B18: CE115HA000 K52N one-arm antibody (antibody, human IgG1, kappa, L234A L235A, N297A, name in Kabat numbering)
heavy: B1 heavy with I52N
chain: B1 chain
light: B1 light
B19: CE115HA000 K64Q one-arm antibody (antibody, human IgG1, kappa, L234A L235A, N297A, name in Kabat numbering)
heavy: B1 heavy with I52K, K67Q
chain: B1 chain
light: B1 light
B20: CE115HA000 N31G one-arm antibody (antibody, human IgG1, kappa, L234A L235A, N297A, name in Kabat numbering)
heavy: B1 heavy with N31G, I52K
chain: B1 chain
light: B1 light
B21: CE115HA000 N31R one-arm antibody (antibody, human IgG1, kappa, L234A L235A, N297A, name in Kabat numbering)
heavy: B1 heavy with N31R, I52K
chain: B1 chain
light: B1 light
B22: CE115HA000 N31D one-arm antibody (antibody, human IgG1, kappa, L234A L235A, N297A, name in Kabat numbering)
heavy: B1 heavy with N31D, I52K
chain: B1 chain
light: B1 light
B23: CE115HA000 K64D one-arm antibody (antibody, human IgG1, kappa, L234A L235A, N297A, name in Kabat numbering)
heavy: B1 heavy with I52K, K67D
chain: B1 chain
light: B1 light
B24: CE115HA000 K52R one-arm antibody (antibody, human IgG1, kappa, L234A L235A, N297A, name in Kabat numbering)
heavy: B1 heavy with I52R
chain: B1 chain
light: B1 light
B25: CE115HA000 K52W one-arm antibody (antibody, human IgG1, kappa, L234A L235A, N297A, name in Kabat numbering)
heavy: B1 heavy with I52W
chain: B1 chain
light: B1 light
B26: CE115HA000 N31H one-arm antibody (antibody, human IgG1, kappa, L234A L235A, N297A, name in Kabat numbering)
heavy: B1 heavy with N31H, I52K
chain: B1 chain
light: B1 light
B27: CE115HA000 K75R one-arm antibody (antibody, human IgG1, kappa, L234A L235A, N297A, name in Kabat numbering)
heavy: B1 heavy with I52K, K78R
chain: B1 chain
light: B1 light
B28: CE115HA000 N31I one-arm antibody (antibody, human IgG1, kappa, L234A L235A, N297A, name in Kabat numbering)
heavy: B1 heavy with N31I, I52K
chain: B1 chain
light: B1 light
B29: CE115HA000 K64A one-arm antibody (antibody, human IgG1, kappa, L234A L235A, N297A, name in Kabat numbering)
heavy: B1 heavy with I52K, K67A
chain: B1 chain
light: B1 light
B30: CE115HA000 K52bY one-arm antibody (antibody, human IgG1, kappa, L234A L235A, N297A, name in Kabat numbering)
heavy: B1 heavy with I52K, K54Y
chain: B1 chain
light: B1 light
B31: CE115HA000 N31A one-arm antibody (antibody, human IgG1, kappa, L234A L235A, N297A, name in Kabat numbering)
heavy: B1 heavy with N31A, I52K
chain: B1 chain
light: B1 light
notes: one-arm antibody: altered VH on pE22Hh, Fc-only chain Kn010G3, GLS3000 on kappa; the same build holds for m3 to m260

In the test the target is T1, CD3 epsilon homodimer protein (UniProt P07766 23-126).
T1 construct: immobilized on Sensor chip CM4 by amine coupling; also called CD3 (CD3 epsilon)
T1 sequence (P07766 23-126): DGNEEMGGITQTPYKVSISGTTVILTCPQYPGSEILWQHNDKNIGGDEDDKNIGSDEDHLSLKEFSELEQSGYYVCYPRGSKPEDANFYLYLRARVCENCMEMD
As to the kind of experiment: SPR (Biacore T200), CD3 epsilon homodimer on CM4 chip, one-arm antibody as analyte, 25 C.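 Also: homodimer attached to the sensor surface via amine coupling, HBS-EP+ used as running buffer during binding runs.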
Regarding B1, the “ratio of amounts bound (altered form / CE115HA000)” value worked out at 0.33. Regarding B2, the “ratio of amounts bound (altered form / CE115HA000)” value was 0.61. Turning to B3, the “ratio of amounts bound (altered form / CE115HA000)” value came out at 0.49.

Turning to B4, the “ratio of amounts bound (altered form / CE115HA000)” value amounted to 0.84.

Regarding B5, the “ratio of amounts bound (altered form / CE115HA000)” value is 0.84.

On to B6, for which the “ratio of amounts bound (altered form / CE115HA000)” value amounted to 0.62. As to B7, the “ratio of amounts bound (altered form / CE115HA000)” value was found to be 0.6.

As for B8, the “ratio of amounts bound (altered form / CE115HA000)” value worked out at 0.27.

Consider B9, for which the “ratio of amounts bound (altered form / CE115HA000)” value came to 1.01. As to B10, the “ratio of amounts bound (altered form / CE115HA000)” value stood at 0.67. B11: the “ratio of amounts bound (altered form / CE115HA000)” value was 0.68.

Turning to B12, the “ratio of amounts bound (altered form / CE115HA000)” value was found to be 0.74. In the case of B13, the “ratio of amounts bound (altered form / CE115HA000)” value came to 0.18. As for B14, the “ratio of amounts bound (altered form / CE115HA000)” value was 0.28. With B15, the “ratio of amounts bound (altered form / CE115HA000)” value came to 1.11. On to B16, for which the “ratio of amounts bound (altered form / CE115HA000)” value came out at 0.27. The value for B17 was 1.34; that for B18 was 0.34. Consider B19, for which the “ratio of amounts bound (altered form / CE115HA000)” value was found to be 0.89. As for B20, the “ratio of amounts bound (altered form / CE115HA000)” value amounted to 0.39. Take B21: the “ratio of amounts bound (altered form / CE115HA000)” value amounted to 1.14.

As for B22, the “ratio of amounts bound (altered form / CE115HA000)” value was 0.37. As for B23, the “ratio of amounts bound (altered form / CE115HA000)” value came out at 0.72. In the case of B24 it was 0.91; in that of B25, 0.22; in that of B26, 0.68.

B27: the “ratio of amounts bound (altered form / CE115HA000)” value was 1.01.

Take B28: the “ratio of amounts bound (altered form / CE115HA000)” value stood at 0.81. B29: the “ratio of amounts bound (altered form / CE115HA000)” value stood at 0.82. As to B30, the “ratio of amounts bound (altered form / CE115HA000)” value was determined as 0.74.

For B31, the “ratio of amounts bound (altered form / CE115HA000)” value is 0.5.

The values above are taken from patent publication US20210388087A1 (Chugai, published 2021).
